Reference: US6323177, “Interaction of reelin with very low density lipoprotein (VLDL) receptor for screening and therapies” (St. Jude Children's Research Hospital, dated 2001)

Target: Reelin (full length, expressed from pCr1 in 293T cells, conditioned medium) (mouse)
Assay: cell binding assay: 293T cells with or without VLDL receptor incubated with Reelin conditioned medium, washed, lysed, Western blot with G10
Procedure: Reelin-VLDL receptor binding assay. 293T cells transfected with or without the VLDL receptor are washed in phosphate buffer saline (PBS) containing divalent cations and distributed into Eppendorf tubes (approximately 10^6 cells/sample). For Reelin binding assays, cells are incubated with conditioned medium containing 20–100 ng of Reelin for 30 min to 2 h at 4° C. or room temperature. Cells are then washed again with PBS and solubilized in […] of TxB buffer (150 mM NaCl, 50 mM Tris-Cl pH7.5, 1% Triton-X, 1 mM EDTA) supplemented with 0.1 mg/ml Aprotinin, with 0.1 mg/m Leupeptin, 20 mM Sodium Fluoride, and 1 mM Sodium Orthovanadate. Cell extracts are clarified by centrifugation at 13,000×g for 10 min at 4° C. and subjected to Western blot analysis to reveal the presence of Reelin retained by the VLDL receptor.
Western blot analysis. Ten µl of cell extract per lane are analyzed by SDS-PAGE on 4–12% minigels (Novex). Proteins are transferred to nitrocellulose membranes and blocked in 3% milk in Tris buffer saline (TBS) for 1 h at room temperature. Proteins bound to the membranes are incubated at 4° C. overnight in antibody diluted in 0.3% milk-TBS supplemented with 0.1% Tween (TBST). Ascites fluids containing the mouse monoclonal G10 antibody (de Bergeyck et al., J. Neurosci. Methods, 82:17–24, 1998) are used at a 1:1000 dilution to detect Reelin. […]

B1: human very low density lipoprotein (VLDL) receptor, expressed on transfected 293T cells (receptor)
chain: not shown
  binding result: binds
